The values below are quoted from earlier work in paper PMC3317066.

Data set [1] has as its target falcipain-2 (Plasmodium falciparum) (UniProt Q8I6U4).
Data set [2] concerns the target falcipain-3 (Plasmodium falciparum) (UniProt Q8IIL0).
Data set [3] deals with methemoglobin (Homo sapiens) (UniProt P69905).
Data set [4] has as its target hemoglobin (Homo sapiens) (UniProt P69905).

Chain of UniProt Q8IIL0 (Q8IIL0 243-492): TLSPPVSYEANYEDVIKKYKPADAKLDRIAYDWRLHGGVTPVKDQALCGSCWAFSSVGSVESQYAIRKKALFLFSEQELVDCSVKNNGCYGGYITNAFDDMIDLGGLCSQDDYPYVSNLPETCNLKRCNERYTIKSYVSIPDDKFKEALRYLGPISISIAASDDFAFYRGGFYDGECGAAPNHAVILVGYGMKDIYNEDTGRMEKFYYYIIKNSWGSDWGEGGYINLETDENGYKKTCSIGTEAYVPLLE

Turning to cystatin (from UniProt P01038), the figures for the Ki in data set [1] and in data set [2] were 6.5 nM and 100 nM, respectively.

For the substance falcipain-2 (from UniProt Q8I6U4), the values for the dissociation constant Kd in data set [3] and in data set [4] were 800 nM and 3300 nM, respectively.
